No end group written: not given here.
How the values were obtained:
[1] = molecular target: the molecule itself; experiment: sedimentation equilibrium AUC, self-association, monomer-n-mer fit, 25 C
[2] = molecular target: the molecule itself; experiment: sedimentation equilibrium AUC, self-association (tetramer), 25 C
[3] = molecular target: the molecule itself; experiment: sedimentation equilibrium AUC, self-association (dimer), 25 C
[4] = molecular target: the molecule itself; experiment: AUC, self-association, monomer/dimer/tetramer model, dimer term, 25 C; dimer term of the monomer/dimer/tetramer model, 25 C
[5] = molecular target: T1, human Fyn (residues 81-142) SH3 domain-GST fusion protein (human, UniProt P06241 81-142); experiment: fluorescence polarization, 50 nM labeled peptide, SH3-GST titrated
T1 construct: range 81-142; also called Fyn SH3

[6] = molecular target: T2, human Lyn (residues 62-122) SH3 domain-GST fusion protein (human, UniProt P07948 62-122); experiment: as above
T2 construct: range 62-122; also called Lyn SH3

[7] = molecular target: T3, human Lck (residues 62-128) SH3 domain-GST fusion (human, UniProt P06239 62-128); experiment: as above
T3 construct: range 62-128; also called Lck SH3

[8] = molecular target: T4, human Hck (residues 77-137 of full-length kinase) SH3 domain-GST fusion protein (human, UniProt P08631 77-137); experiment: as above
T4 construct: range 77-137; also called Hck SH3

[9] = molecular target: T2, human Lyn (residues 62-122) SH3 …; experiment: fluorescence polarization, 50 nM labeled peptide, SH3-GST titrated; data above 50 micromolar target excluded from the fit
[10] = molecular target: T4, human Hck (residues 77-137 of …); experiment: as above

T4 sequence (P08631 77-137): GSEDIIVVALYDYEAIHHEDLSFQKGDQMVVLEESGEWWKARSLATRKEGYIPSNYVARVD
T3 sequence (P06239 62-128): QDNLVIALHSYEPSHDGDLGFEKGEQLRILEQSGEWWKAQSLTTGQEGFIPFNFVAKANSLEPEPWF
T1 sequence (P06241 81-142): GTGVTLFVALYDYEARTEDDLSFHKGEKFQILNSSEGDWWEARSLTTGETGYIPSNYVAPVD
T2 sequence (P07948 62-122): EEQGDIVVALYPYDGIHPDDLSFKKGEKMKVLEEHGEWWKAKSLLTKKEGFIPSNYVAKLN

B1: aPP^Y7AP13VV14P (peptide)
chain: GPSQPTAPGDDAVPEDLIRFYDNLQQYLNVVTRHRY-NH2
notes: Synthetic aPP variant; entries are for its self-association (tetramer); also called aPP^Y7AP13W14P
lnKA (n = 4) [1]: 27.9 | Kd [2]: 0.00075 nM

B2: aPP^Y21A (peptide)
chain: GPSQPTYPGDDAPVEDLIRFADNLQQYLNVVTRHRY-NH2
notes: Synthetic aPP variant; entries are for its self-association (dimer)
Kd [3]: 1300 nM | lnKA (n = 2) [1]: 13.6

B3: aPP^Y7AQ25R (peptide)
chain: GPSQPTAPGDDAPVEDLIRFYDNLRQYLNVVTRHRY-NH2
notes: Synthetic aPP variant; entries are for its self-association (tetramer)
lnKA (n = 4) [1]: 29.3 | Kd [2]: 0.00018 nM

B4: pancreatic peptide YY (PYY) (peptide)
chain: not shown
modifications: C-terminal carboxamide
notes: Synthetic; entries are for its self-association
Kd [3]: 830000 nM | lnKA (n = 2) [1]: 7.09

B5: aPP^Y7AT6E (peptide)
chain: GPSQPEAPGDDAPVEDLIRFYDNLQQYLNVVTRHRY-NH2
notes: entries are for its self-association (tetramer); also called aPP^Y7AAT6E
lnKA (n = 4) [1]: 29.3 | Kd [2]: 0.0002 nM

B6: aPP^F20A (peptide)
chain: GPSQPTYPGDDAPVEDLIRAYDNLQQYLNVVTRHRY-NH2
notes: as for B3
lnKA (n = 4) [1]: 23.3 | Kd [2]: 0.076 nM

B7: aPP^Y7AP13SV14P (peptide)
chain: GPSQPTAPGDDASPEDLIRFYDNLQQYLNVVTRHRY-NH2
notes: Synthetic aPP variant with the proline switch; entries are for its self-association (monomer/dimer/tetramer)
Kd [4]: 530000 nM

B8: aPP^Y7A (peptide)
chain: GPSQPTAPGDDAPVEDLIRFYDNLQQYLNVVTRHRY-NH2
notes: as for B3
lnKA (n = 4) [1]: 26.3 | Kd [2]: 0.0039 nM

B9: PP2^Flu (designed binder)
chain: APPLPPRNRGDDAPVEDLIRFYDNLQQYLNVVTRHRYC
modifications: ends and bridges not checked; also: fluorescently labeled, site and dye not given here
notes: also called PP2 (fluorescently labeled)
Kd [5]: 14000 nM | Kd [6]: 3700 nM | Kd [7]: 2700 nM | Kd [8]: 1300 nM

B10: PP3^Flu (designed binder)
chain: APPLPPRNRPRDAPVEDLIRFYDNLQQYLNVVTRHRYC
modifications: ends and bridges not checked; also: fluorescently labeled, site and dye not given here
notes: also called PP3 (fluorescently labeled)
Kd [9]: 1800 nM | Kd [10]: 880 nM | Kd [5]: 2100 nM | Kd [7]: 1430 nM

B11: PP1^Flu (designed binder)
chain: APPLPPRNPGDDAPVEDLIRFYDNLQQYLNVVTRHRYC
modifications: ends and bridges not checked; also: fluorescently labeled, site and dye not given here
notes: also called PP1 (fluorescently labeled)
Kd [5]: 25000 nM | Kd [6]: 4900 nM | Kd [7]: 40000 nM | Kd [8]: 3800 nM

B12: avian pancreatic polypeptide (aPP) (peptide)
chain: GPSQPTYPGDDAPVEDLIRFYDNLQQYLNVVTRHRY
modifications: ends and bridges not checked
notes: Bought from American Peptide Company; entries are for its self-association (dimer); also called wt aPP
Kd [3]: 4100 nM | lnKA (n = 2) [1]: 12.4

From patent US20100273722A1 (YALE UNIVERSITY, published 2010)
